According to US9527913B2, “Humanized pan-HER antibody compositions” (Symphogen A/S, priority 2012, dated 2016):

Key:
MDA-MB-175-VII cells = test: WST-1 metabolic activity, parental and pertuzumab resistant cells (Example 5); assay type: cell-based, human; details: 96 hours
Description: Cells were split once or twice a week in order to keep cells in exponential growth. The level of resistance was tested every month in a WST-1 viability assay as described in Example 2, until a pool of resistant cells was established.
Metabolic activity was determined after 96 hours incubation using a similar WST-1 assay as described in Example 2.

human HER3 = biological target: T1, human HER3 (Homo sapiens, UniProt P21860); test: Kinetic binding analysis by surface plasmon resonance (ProteOn XPR36, IgG capture); details: Human antigen
T1 construct: against soluble antigen under monovalent conditions; purchased Sino Biologicals
Description: (§1) Kinetic binding analysis of the purified humanized variants was performed on a ProteOn™ XPR36 biosensor (BioRad, USA) employing an IgG capture assay as described by Canziani et al. (Anal. Biochem. (2004) 325:301-307) that allows for measurement of antibody affinities of whole IgG molecules against soluble antigen under monovalent conditions. Briefly, approximately 5000 resonance units (RU) of a monoclonal mouse anti-human IgG Fc antibody (GE Healthcare, Denmark) was conjugated to a GLC chip surface (BioRad, USA) according to the manufacturer's instructions, followed by capture of individual antibodies of the invention or a negative control on the anti-Fc sensor surface. […] Next, 250 μl monovalent antigen (Sino Biologicals) was injected at a flow rate of 50 μl/min in serial threefold dilutions from 100 nM stock to generate response curves. The chip surface was regenerated between cycles by stripping the captured antibody/antigen complexes off the surface with a 10-second injection of 3 M MgCl2 (GE Healthcare, Denmark) repeated three times. Finally, binding responses were fitted to a Langmuir 1:1 binding model for calculation of the on-rate (kon or ka), off-rate (koff or kd) and affinity (KD) constants using double referencing.

cynomolgus HER3 = test: as above; details: Cynomolgus antigen
Description: as §1

[1] = system: EGFR, HER2 and HER3 from humans, cynomolgus monkeys and mice, human and murine HER4; test: Cross-reactivity ELISA with coated antigens; assay type: binding, mouse; details: OD at 450 nm, 40 nM antibody, compared to chimeric parent
Description: Antibody-antigen binding was measured by ELISA with coated antigens. Human antigens were obtained from Sino Biologicals. All other antigens were produced in-house by transient expression in CHO or HEK293 cells. Chimeric and humanized antibodies, as well as an isotype control antibody, were incubated with the coated antigens at different concentrations. After wash, bound antibodies were detected by HRP-(horse radish peroxidase)-conjugated secondary antibodies. The OD signal from 40 nM antibody, measured at 450 nm using an ELISA reader, was scored from negative (−; OD<0.1) to strongly positive (+++; OD>2.5).

[2] = system: A431NS, H358, FaDu, OE19, BT474, MDA-MB-175 VII, MCF-7, N87, HN5, MFE-280 cancer cell lines; test: Viability assay (WST-1) of humanized variants with partner antibody and of six-antibody mixtures; assay type: cell-based, human; details: two cell lines per variant, 96 hours
Description: Each humanized variant was tested in two cell lines and compared to the parental mixture of two chimeric antibodies and to a negative control antibody. […] In addition, a combination of six humanized variants (11294, 11302, 11249, 11145, 10738 and 11052; Humanized Pan-HER) was tested in a number of cell lines and compared to the combination of the six chimeric antibodies (1277, 1565, 4384, 4517, 5038 and 5082; Chimeric Pan-HER). The cell lines used, N87 gastric, FaDu head and neck, A431NS epidermoid, OE19 esophageal, HN5 head and neck, MDA-MB-175 VII breast and MFE-280 endometrial cancer, were selected on the basis of their previously determined dependency on the HER family receptors.
Prior to performing the viability assay the appropriate antibodies and antibody mixtures were diluted to a final total antibody concentration of 100 μg/ml in appropriate media supplemented with 0.5-2% FBS and 1% P/S (penicillin/streptomycin), yielding a final total antibody concentration of 50 μg/ml in the well containing the highest antibody concentration. A threefold serial dilution of the antibodies was then performed in a 384-well plate, followed by addition of relevant numbers of cells to the experimental wells. The MCF-7 cells were also stimulated with 1 nM heregulin beta. The plates were incubated for 4 days in a humidified incubator at 37° C. WST-1 reagent (Roche Applied Science, Mannheim, Germany) was added to the plates and the plates were incubated for 1-3 h at 37° C. Plates were transferred to an orbital plate shaker for one h and the absorbance was measured at 450 and 620 nm (reference wavelength) using an ELISA reader. The percentage of metabolically active cells (MAC) is calculated as a percentage of the untreated control as follows: […]

[3] = system: EGFR, HER2 and HER3 in H292 cells; test: Western blot of EGFR, HER2 and HER3 in whole cell lysates (Example 6); assay type: cell-based, human; details: H292, 20 μg/ml, 48 hour
cynomolgus EGFR = test: Kinetic binding analysis by surface plasmon resonance (ProteOn XPR36, IgG capture); details: Cynomolgus antigen
Description: as §1

[4] = system: EGFR, HER2 and HER3 in OVCAR-8 cells; test: Western blot of EGFR, HER2 and HER3 in whole cell lysates (Example 6); assay type: cell-based, human; details: OVCAR-8, 20 μg/ml, 48 hour

What does the source list for pertuzumab?
metabolic activity (MDA-MB-175-VII cells; parental MDA-MB-175-VII cells): reduced; metabolic activity (MDA-MB-175-VII cells; pertuzumab resistant MDA-MB-175-VII cells): unaltered

B1: antibody 10810: humanized anti-HER3 antibody from chimeric parent 5038; HC SEQ ID NO: 56, LC SEQ ID NO: 57 (antibody, V domains shown)
VH: QVQLQESGPGLVKPSQTLSLTCTVSGYSITSGFYWTWIRQHPGNGLEWIGFISYSGSNNYNPSLKNRVTISVDTSKNQFSLKLSSVTAADTATYYCARGGGYYGNLFDYWGQGTLVTVSS
VL: DIQMTQSPSSLSASVGDRVTITCRPSQDISNYVNWFQQKPGKAPKLLIFHTSRLHSGVPSRFSGSGSGTDFTLTISSLQPEDIATYYCQQGITLPWTFGQGTKVEIK
Which results are given for B1?
ka (human HER3): 190000 M⁻¹ s⁻¹; kd (human HER3): 0.0002 s⁻¹; ka (cynomolgus HER3): 470000 M⁻¹ s⁻¹; kd (cynomolgus HER3): 0.00034 s⁻¹; cross-reactivity pattern with HER family antigens [1]: binding to the same human and cynomolgus antigen combined with lack of binding to the mouse antigen or to other EGFR family receptors; anti-proliferative effect in combination with partner antibody, compared to mixture of the two chimeric parent antibodies [2]: highly similar anti-proliferative effects

B2: antibody 11052: humanized anti-HER3 antibody from chimeric parent 5082; HC SEQ ID NO: 60, LC SEQ ID NO: 61 (antibody, V domains shown)
VH: QVQLQESGPGLVKPSQTLSLTCTVSGYSITSAYYWNWIRQFPGKGVEWMGYIGYSGRNTYNPSLKNRVTISRDTSKNQFSLKLSSVTAADTAVYYCSREGDYGYSDYWGQGTLVTVSS
VL: DIQMTQSPSSLSASVGDRVTVTCRASQDINNYLNWYQQKPGKAVKLLIYYTSRLQSGVPSRFSGSGSGTDYTLTISSLQPEDFATYFCQQSETLPWTFGQGTKLEIK
How did the ka (human HER3) turn out when B2 was run?
The ka was 870000 M⁻¹ s⁻¹.

And the kd (human HER3)?
Its kd is 0.00016 s⁻¹.

What about the ka (cynomolgus HER3) of the same molecule?
Its ka is 1.3e+06 M⁻¹ s⁻¹.

What about the kd (cynomolgus HER3) of the same molecule?
The kd was 0.00026 s⁻¹.

What about the “cross-reactivity pattern with HER family antigens” value [1] of the same molecule?
Its value is “binding to the same human and cynomolgus antigen combined with lack of binding to the mouse antigen or to other EGFR family receptors”.

And the “anti-proliferative effect in combination with partner antibody, compared to mixture of the two chimeric parent antibodies” value [2]?
Its value is “highly similar anti-proliferative effects”.

B3: antibody 1277: chimeric parent anti-EGFR antibody disclosed in WO 2012/059857; VH SEQ ID NO: 15, light chain SEQ ID NO: 17 (antibody)
VH: RAEVQLVESGGGLVKPGESLKLSCAASGFAFSYSDMSWVRQTPEKRLEWVAYMSSAGDVTFYSDTVKGRFTISRDNAKNTLYLQVSSLKSEDTAIYYCVRHRDVAMDYWGQGTSVTVS
light: LADVVMTQTPLSLPVSLGDQASISCRSSQSLVHSNGNTYLHWYLQKPGQSPKLLIYKVSNRFSGVPDRFSGSGSGTDFTLKISRVEAEDLGVYFCSQSTHVPTFGGGTKLEIKRTVAAPSVFIFPPSDEQLKSGTASVVCLLNNFYPREAKVQWKVDNALQSGNSQESVTEQDSKDSTYSLSSTLTLSKADYEKHKVYACEVTHQGLSSPVTKSFNRGEC
Which results are given for B3?
EGFR, HER2 and HER3 levels in whole cell lysates [3]: HER2 upregulation; ka (cynomolgus EGFR): 660000 M⁻¹ s⁻¹; kd (cynomolgus EGFR): 0.00039 s⁻¹

B4: antibody 1565: chimeric parent anti-EGFR antibody disclosed in WO 2012/059857; VH SEQ ID NO: 19, light chain SEQ ID NO: 21 (antibody)
VH: RAEVQLQQSGTELVKPGASVILSCKASGYTFTSYWMQWVKQRPGQGLEWIGNINPSNGGTSFNEEFKSRATLTVDKSSSTAYMQLSSLTSEDSAVYYCARDGGLYDGYYFDFWGQGTTLTVS
light: LANIVMTQSHKFMSTLIGARVSITCKASQDVDTAVAWYQQKPGQSPKLLIYWASTRHTGVPDRFTGSGSGTDFSLTVSNVQSEDLTDYFCQQYSSYPLTFGAGTKLELKRTVAAPSVFIFPPSDEQLKSGTASVVCLLNNFYPREAKVQWKVDNALQSGNSQESVTEQDSKDSTYSLSSTLTLSKADYEKHKVYACEVTHQGLSSPVTKSFNRGEC
With B4 as the molecule, how does the “EGFR, HER2 and HER3 levels in whole cell lysates” value (from here on “EGFR, HER2 and HER3 levels”) [3] read?
The value was “HER2 upregulation”.

And the ka (cynomolgus EGFR)?
Its ka is 580000 M⁻¹ s⁻¹.

What about the kd (cynomolgus EGFR) of the same molecule?
The kd was 0.016 s⁻¹.

B5: MM-121: anti-HER3 treatment lane in the OVCAR-8 Western blot (antibody, chains of the INN, looked up)
heavy: EVQLLESGGGLVQPGGSLRLSCAASGFTFSHYVMAWVRQAPGKGLEWVSSISSSGGWTLYADSVKGRFTISRDNSKNTLYLQMNSLRAEDTAVYYCTRGLKMATIFDYWGQGTLVTVSSASTKGPSVFPLAPCSRSTSESTAALGCLVKDYFPEPVTVSWNSGALTSGVHTFPAVLQSSGLYSLSSVVTVPSSNFGTQTYTCNVDHKPSNTKVDKTVERKCCVECPPCPAPPVAGPSVFLFPPKPKDTLMISRTPEVTCVVVDVSHEDPEVQFNWYVDGVEVHNAKTKPREEQFNSTFRVVSVLTVVHQDWLNGKEYKCKVSNKGLPAPIEKTISKTKGQPREPQVYTLPPSREEMTKNQVSLTCLVKGFYPSDIAVEWESNGQPENNYKTTPPMLDSDGSFFLYSKLTVDKSRWQQGNVFSCSVMHEALHNHYTQKSLSLSPG
light: QSALTQPASVSGSPGQSITISCTGTSSDVGSYNVVSWYQQHPGKAPKLIIYEVSQRPSGVSNRFSGSKSGNTASLTISGLQTEDEADYYCCSYAGSSIFVIFGGGTKVTVLGQPKAAPSVTLFPPSSEELQANKATLVCLVSDFYPGAVTVAWKADGSPVKVGVETTKPSKQSNNKYAASSYLSLTPEQWKSHRSYSCRVTHEGSTVEKTVAPAECS
B5 was tested. Which “EGFR, HER2 and HER3 levels” value [4] did it give?
The value was “HER2 up-regulation”.

B6: antibody 5082: chimeric parent anti-HER3 antibody disclosed in WO 2012/059857; VH SEQ ID NO: 35, light chain SEQ ID NO: 37 (antibody)
VH: RAEVQLKESGPGLVKPSQSLSLTCSVTGYSITSAYYWNWIRQFPGNKVEWMGYIGYDGRNTYNPSLKNRISITRDTSKNQFFLKLNSLTTEDTATYYCSREGDYGYSDYWGQGTTLTVS
light: LADIVMTQATSSLSASLGDRVTVSCRASQDINNYLNWYQQKPDGTVKLLIYYTSRLQSGVPSRFSGSGSGIDYSLTISNLEQEDFVTYFCQQSETLPWTFGGGTKLELKRTVAAPSVFIFPPSDEQLKSGTASVVCLLNNFYPREAKVQWKVDNALQSGNSQESVTEQDSKDSTYSLSSTLTLSKADYEKHKVYACEVTHQGLSSPVTKSFNRGEC
How did the “EGFR, HER2 and HER3 levels” value [4] turn out when B6 was run?
The value was “HER2 up-regulation”.

What about the ka (human HER3) of the same molecule?
Its ka is 910000 M⁻¹ s⁻¹.

And the kd (human HER3)?
The kd was 7.3e-05 s⁻¹.

What about the ka (cynomolgus HER3) of the same molecule?
The ka was 1.7e+06 M⁻¹ s⁻¹.

And the kd (cynomolgus HER3)?
Its kd is 0.00016 s⁻¹.
